Columns and labels:
[1] = molecular target: Bacteroidetes bacterium GWA2_30_7 CuZn superoxide dismutase (BbCuZnSOD) (Bacteroidetes bacterium GWA2_30_7); experiment: SEC-MALS; size-exclusion chromatography coupled static light scattering (SEC-SLS), masses from refractive index; 20 mM Tris-HCl pH 7.4, 150 mM NaCl
[2] = molecular target: Rickettsiales bacterium TMED131 CuZn superoxide dismutase (RbCuZnSOD) (Rickettsiales bacterium TMED131); experiment: as above

Row | stoichiometry N [1] | Substance | stoichiometry N [2]
1 | 2 | Bacteroidetes bacterium GWA2_30_7 CuZn superoxide dismutase (BbCuZnSOD) (enzyme) | 
2 |  | Rickettsiales bacterium TMED131 CuZn superoxide dismutase (RbCuZnSOD) (enzyme) | 2

From article PMC8382915
